Experimental data taken from publication PMC6679193, “Unraveling the Impact of Cysteine-to-Serine Mutations on the Structural and Functional Properties of Cu(I)-Binding Proteins” (International Journal of Molecular Sciences, 2019).
Substitutions are numbered along the chain they refer to. Names may count otherwise.

T1: ATP7B metal binding domains 3-4, wild type (WT-MBD3-4) (human, UniProt P35670 238-439)
T1 construct: The printed PCR primers encode a start at RPLSSAN and an end at TNPLGNH followed by a stop codon; Residues of the vector may remain after intein cleavage; also called ATP7B MBD3-4; ATP7B-MBD34; source: E. coli Origami 2, purified (chitin beads, intein self-cleavage with DTT)
T1 sequence: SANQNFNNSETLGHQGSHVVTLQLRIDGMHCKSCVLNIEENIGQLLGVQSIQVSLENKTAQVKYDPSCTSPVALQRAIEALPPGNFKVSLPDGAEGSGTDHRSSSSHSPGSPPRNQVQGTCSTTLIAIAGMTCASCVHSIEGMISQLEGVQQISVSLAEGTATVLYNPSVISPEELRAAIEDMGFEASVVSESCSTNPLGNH

B1: Atox1 metallochaperone, wild type (WT-Atox1) (natural protein, human)
chain: MPKHEFSVDMTCGGCAEAVSRVLNKLGGVKYDIDLPNKKVCIESEHSMDTLLATLKKTGKTVSYLGLE
notes: Human Atox1 copper metallochaperone
B2: MBD3-4_C268S_C271S_C370S_C373S mutant of ATP7B (SER-MBD3-4) (domain or fragment, human)
chain: T1 sequence with C31S, C34S, C133S, C136S
notes: The methods describe only the wild-type construct; also called MBD3-4(Ser); source: expressed and purified as WT-MBD3-4 (E. coli Origami 2, chitin beads, intein self-cleavage)
B3: CueR metalloregulator of E. coli, wild type (WT-CueR) (natural protein, UniProt P0A9G4 1-135, looked up)
chain: MNISDVAKITGLTSKAIRFYEEKGLVTPPMRSENGYRTYTQQHLNELTLLRQARQVGFNLEESGELVNLFNDPQRHSADVKRRTLEKVAEIERHIEELQSMRDQLLALANACPGDDSADCPIIENLSGCCHHRAG
notes: No cleavage is described; source: E. coli BL21, purified (Ni-NTA agarose)
B4: CueR_C120S (natural protein, E. coli, UniProt P0A9G4 1-135, looked up)
chain: B3 chain with C120S
notes: E. coli CueR, same construct as m4, with C120S; source: E. coli BL21, purified (Ni-NTA agarose)
B5: CueR_C112S (natural protein, E. coli, UniProt P0A9G4 1-135, looked up)
chain: B3 chain with C112S
notes: E. coli CueR, same construct as m4, with C112S; source: E. coli BL21, purified (Ni-NTA agarose)
B6: CueR_C112S_C120S (natural protein, E. coli, UniProt P0A9G4 1-135, looked up)
chain: B3 chain with C112S, C120S
notes: E. coli CueR, same construct as m4, with C112S and C120S; source: E. coli BL21, purified (Ni-NTA agarose)

Key:
[1] = target: T1, ATP7B metal binding domains 3-4, wild …; experiment: cross-linking; 0.1% glutaraldehyde, RT, 30 min or overnight, phosphate buffer (25 mM Na2HPO4, 150 mM NaCl, pH 8), read by SDS-PAGE; MBD3-4 at 50 uM or increasing concentrations, Atox1 at 50 uM; with or without Cu(I) at different ratios; conditions: both partners purified
[2] = target: B2; experiment: as above; conditions: both partners purified
[3] = target: the molecule itself; experiment: as above
[4] = target: the molecule itself; experiment: cross-linking; 0.6% glutaraldehyde, RT, 30 min, phosphate buffer (25 mM Na2HPO4, 150 mM NaCl, pH 8), CueR at 20 uM, with or without Cu(I) at a 1:3 ratio, read by SDS-PAGE

B1
binding result [1]: binds | binding result [2]: binds

B2
binding result [3]: binds

B3
stoichiometry N [4]: 2

B4
binding result [4]: binds

B5
binding result [4]: binds

B6
binding result [4]: binds
